Measurements published in PMC9638904, “Structure and mechanism of the type I-G CRISPR effector” (Nucleic Acids Research, 2022).

What was measured:
[1] = target: T1, Csb2 (Thioalkalivibrio sulfidiphilus HL-EbGr7, UniProt B8GLG2 1-516); assay: fluorescence anisotropy; 5 mM MgCl2, 1 mM EDTA; Anisotropy: 25 nM RNA, 50 mM NaCl, 1 mM DTT, 5 mM MgCl2, 1 mM EDTA, 0.1 U/ul RNase inhibitor, 37 C; EMSA/plasmid: 20 mM Tris-HCl, 50 mM NaCl, 1 mM DTT, 0.1 mg/ml BSA, 5 mM MgCl2, 1 mM EDTA, 37 C (30 min EMSA, 1 h plasmid); details: protein: recombinant; tags: cloning described in pET-Duet and pEV5HisTEV; His8-TEV tag removed; label: 5'-6-FAM; hairpin
T1 sequence: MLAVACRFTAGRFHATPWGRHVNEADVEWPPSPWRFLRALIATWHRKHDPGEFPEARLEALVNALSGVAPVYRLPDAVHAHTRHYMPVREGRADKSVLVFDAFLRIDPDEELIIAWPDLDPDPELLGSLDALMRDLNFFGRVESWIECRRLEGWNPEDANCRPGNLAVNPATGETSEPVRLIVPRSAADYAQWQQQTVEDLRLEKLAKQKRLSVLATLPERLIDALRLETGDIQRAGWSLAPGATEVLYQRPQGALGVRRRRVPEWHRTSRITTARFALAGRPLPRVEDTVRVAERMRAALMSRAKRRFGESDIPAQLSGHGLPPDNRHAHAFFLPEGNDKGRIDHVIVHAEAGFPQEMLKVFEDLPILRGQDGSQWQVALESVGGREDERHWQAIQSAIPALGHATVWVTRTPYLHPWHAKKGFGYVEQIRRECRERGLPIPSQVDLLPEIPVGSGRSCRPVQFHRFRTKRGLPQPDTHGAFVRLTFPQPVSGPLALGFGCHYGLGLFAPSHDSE

[2] = target: T2, Csb2 N-terminal (Cas5-like) domain (Thioalkalivibrio sulfidiphilus HL-EbGr7, UniProt B8GLG2 1-259); assay: fluorescence anisotropy; Anisotropy: 25 nM RNA, 50 mM NaCl, 1 mM DTT, 5 mM MgCl2, 1 mM EDTA, 0.1 U/ul RNase inhibitor, 37 C; EMSA/plasmid: 20 mM Tris-HCl, 50 mM NaCl, 1 mM DTT, 0.1 mg/ml BSA, 5 mM MgCl2, 1 mM EDTA, 37 C (30 min EMSA, 1 h plasmid); details: protein: recombinant, tags: N-terminal His8-TEV, removed
T2 sequence: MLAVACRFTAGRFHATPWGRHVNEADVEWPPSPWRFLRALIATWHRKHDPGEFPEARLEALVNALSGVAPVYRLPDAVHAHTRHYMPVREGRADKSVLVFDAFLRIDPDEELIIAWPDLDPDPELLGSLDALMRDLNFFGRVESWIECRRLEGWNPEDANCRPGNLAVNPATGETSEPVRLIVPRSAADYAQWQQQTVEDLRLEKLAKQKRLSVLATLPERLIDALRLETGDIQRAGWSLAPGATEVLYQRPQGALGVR

[3] = target: T1, Csb2; assay: fluorescence anisotropy; no appreciable binding; Anisotropy: 25 nM RNA, 50 mM NaCl, 1 mM DTT, 5 mM MgCl2, 1 mM EDTA, 0.1 U/ul RNase inhibitor, 37 C; EMSA/plasmid: 20 mM Tris-HCl, 50 mM NaCl, 1 mM DTT, 0.1 mg/ml BSA, 5 mM MgCl2, 1 mM EDTA, 37 C (30 min EMSA, 1 h plasmid); details: protein: recombinant; tags: cloning described in pET-Duet and pEV5HisTEV; His8-TEV tag removed
[4] = target: the molecule itself; assay: cryo-EM structure; SEC-purified complex of Cas7, Cas8g, Csb2 and 72 nt crRNA, 1 mg/ml; Titan Krios 300 kV; multibody refinement for Cas8g (~8 Å)
[5] = target: Csb2;Cas7;Cas8g;Cas3 (Thioalkalivibrio sulfidiphilus …, UniProt B8GLG2;B8GLG3;B8GLG4;B8GLG5 1-516;1-316;1-720;1-828, |||); assay: EMSA; 0.8 uM effector; near-complete shift; Anisotropy: 25 nM RNA, 50 mM NaCl, 1 mM DTT, 5 mM MgCl2, 1 mM EDTA, 0.1 U/ul RNase inhibitor, 37 C; EMSA/plasmid: 20 mM Tris-HCl, 50 mM NaCl, 1 mM DTT, 0.1 mg/ml BSA, 5 mM MgCl2, 1 mM EDTA, 37 C (30 min EMSA, 1 h plasmid); details: protein: recombinant;recombinant;recombinant;recombinant; tags: cloning described in pET-Duet and pEV5HisTEV; copies: 1;7;1;1; label: 32P 5' end on DNA; crRNA / target strand / non-target strand; target strand as printed has 1 nt 5' overhang
[6] = target: T3, Csb2;Cas7 (Thioalkalivibrio sulfidiphilus …, UniProt B8GLG2;B8GLG3 1-516;1-316, |); assay: EMSA; 0.8 uM effector; no Cas8g, no Cas3; no apparent shift; Anisotropy: 25 nM RNA, 50 mM NaCl, 1 mM DTT, 5 mM MgCl2, 1 mM EDTA, 0.1 U/ul RNase inhibitor, 37 C; EMSA/plasmid: 20 mM Tris-HCl, 50 mM NaCl, 1 mM DTT, 0.1 mg/ml BSA, 5 mM MgCl2, 1 mM EDTA, 37 C (30 min EMSA, 1 h plasmid); details: protein: recombinant;recombinant, tags: cloning described in pET-Duet and pEV5HisTEV, His8-TEV tag removed;N-terminal His8-TEV, copies: 1;7, label: 32P 5' end on DNA, crRNA / target strand / non-target strand, target strand as printed has 1 nt 5' overhang
T3 sequence 1: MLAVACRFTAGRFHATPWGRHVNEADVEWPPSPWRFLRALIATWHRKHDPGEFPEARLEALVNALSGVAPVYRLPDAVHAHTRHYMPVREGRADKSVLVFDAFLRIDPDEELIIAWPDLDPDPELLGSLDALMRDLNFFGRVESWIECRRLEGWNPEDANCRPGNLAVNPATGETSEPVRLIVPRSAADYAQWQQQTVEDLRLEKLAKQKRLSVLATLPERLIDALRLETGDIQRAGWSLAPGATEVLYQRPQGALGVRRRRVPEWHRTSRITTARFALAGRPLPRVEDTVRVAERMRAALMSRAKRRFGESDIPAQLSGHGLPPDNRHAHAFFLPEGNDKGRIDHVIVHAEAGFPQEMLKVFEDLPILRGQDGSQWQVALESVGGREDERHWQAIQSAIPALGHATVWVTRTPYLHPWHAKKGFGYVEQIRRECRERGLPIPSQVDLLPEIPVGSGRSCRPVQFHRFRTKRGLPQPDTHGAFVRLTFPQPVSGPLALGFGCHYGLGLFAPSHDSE
T3 sequence 2: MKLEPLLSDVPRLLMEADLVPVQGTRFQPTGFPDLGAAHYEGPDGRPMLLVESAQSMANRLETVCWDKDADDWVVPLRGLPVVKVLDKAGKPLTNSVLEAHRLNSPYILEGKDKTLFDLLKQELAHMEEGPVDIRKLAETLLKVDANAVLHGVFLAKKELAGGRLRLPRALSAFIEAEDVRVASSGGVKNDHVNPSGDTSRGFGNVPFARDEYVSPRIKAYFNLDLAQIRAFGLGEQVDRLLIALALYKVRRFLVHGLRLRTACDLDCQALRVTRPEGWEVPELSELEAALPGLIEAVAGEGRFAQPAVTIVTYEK

[7] = target: T4, Cas3 (Thioalkalivibrio sulfidiphilus HL-EbGr7, UniProt B8GLG5 1-828); assay: EMSA; Cas3 alone; TS- or NTS-labelled; Anisotropy: 25 nM RNA, 50 mM NaCl, 1 mM DTT, 5 mM MgCl2, 1 mM EDTA, 0.1 U/ul RNase inhibitor, 37 C; EMSA/plasmid: 20 mM Tris-HCl, 50 mM NaCl, 1 mM DTT, 0.1 mg/ml BSA, 5 mM MgCl2, 1 mM EDTA, 37 C (30 min EMSA, 1 h plasmid); details: protein: recombinant; tags: N-terminal His8-TEV, removed; label: 32P on TS or NTS (EMSA); 1 nt 5' overhang on strand 1 as printed
T4 sequence: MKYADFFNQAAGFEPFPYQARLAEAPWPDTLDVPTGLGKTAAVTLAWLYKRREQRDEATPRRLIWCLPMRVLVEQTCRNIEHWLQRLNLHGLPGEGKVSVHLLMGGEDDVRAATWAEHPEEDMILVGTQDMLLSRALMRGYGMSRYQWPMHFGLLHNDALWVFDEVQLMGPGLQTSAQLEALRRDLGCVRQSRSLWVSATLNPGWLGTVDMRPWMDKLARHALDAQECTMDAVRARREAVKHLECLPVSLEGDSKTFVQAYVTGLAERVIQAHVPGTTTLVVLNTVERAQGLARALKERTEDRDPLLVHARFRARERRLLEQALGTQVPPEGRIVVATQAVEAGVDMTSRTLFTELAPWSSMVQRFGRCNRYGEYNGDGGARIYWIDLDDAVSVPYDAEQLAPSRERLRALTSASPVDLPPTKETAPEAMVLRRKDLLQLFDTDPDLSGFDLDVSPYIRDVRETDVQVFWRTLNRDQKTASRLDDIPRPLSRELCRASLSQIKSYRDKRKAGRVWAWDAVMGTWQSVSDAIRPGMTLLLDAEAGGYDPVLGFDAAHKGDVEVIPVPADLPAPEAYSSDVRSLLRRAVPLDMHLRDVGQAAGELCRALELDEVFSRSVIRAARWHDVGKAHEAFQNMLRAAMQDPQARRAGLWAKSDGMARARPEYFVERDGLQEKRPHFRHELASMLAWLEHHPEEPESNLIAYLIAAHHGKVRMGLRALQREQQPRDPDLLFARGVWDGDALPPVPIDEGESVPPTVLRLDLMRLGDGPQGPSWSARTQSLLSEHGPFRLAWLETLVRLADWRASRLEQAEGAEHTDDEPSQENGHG

Binder: GUCAUCCGCGGCAUUUAGCCGCGGCCUC (structured_RNA) [3' hairpin RNA (28 nt)]
- Kd [1]: 43 nM
- binding result ([2]; label: 5'-6-FAM, hairpin): no binding

Binder: AUUGAAGC (ssRNA) [8 nt 5' handle RNA]
- binding result [2]: no binding
- binding result [3]: no binding

Binder: GUCAUCCGCGGCAUUUAGCCGCGGCCUCAUUGAAGC (structured_RNA) [CRISPR repeat RNA (36 nt)]
- Kd [1]: 55 nM
- binding result ([2]; label: 5'-6-FAM, hairpin): no binding

B1: Cas7 (type I-G CRISPR effector subunit, Thioalkalivibrio sulfidiphilus HL-EbGr7) (natural protein, UniProt B8GLG3 1-316, looked up)
chain: MKLEPLLSDVPRLLMEADLVPVQGTRFQPTGFPDLGAAHYEGPDGRPMLLVESAQSMANRLETVCWDKDADDWVVPLRGLPVVKVLDKAGKPLTNSVLEAHRLNSPYILEGKDKTLFDLLKQELAHMEEGPVDIRKLAETLLKVDANAVLHGVFLAKKELAGGRLRLPRALSAFIEAEDVRVASSGGVKNDHVNPSGDTSRGFGNVPFARDEYVSPRIKAYFNLDLAQIRAFGLGEQVDRLLIALALYKVRRFLVHGLRLRTACDLDCQALRVTRPEGWEVPELSELEAALPGLIEAVAGEGRFAQPAVTIVTYEK
notes: synthetic gene, codon-optimised for E. coli; Seven copies stand on the crRNA in the Cascade complex; also called Cas7.1 to Cas7.7 (the seven copies in the complex); source: E. coli C43(DE3), purified (HisTrap, TEV cleavage, gel filtration); not shown: His8, N-terminal, cleaved
- stoichiometry N [4]: 7

B2: Tet crRNA with 80 bp target dsDNA (mixed)
RNA: AUUGAAGCAAGCUGUCCCUGAUGGUCGUCAUCUACCUGCCUGGAGUCAUCCGCGGCAUUUAGCCGCGGCCUC
DNA 1: GCCCGCGTTGCAGGCCATGCTGTCCAGGCAGGTAGATGACGACCATCAGGGACAGCTTCAAGGATCGCTCGCGGCTCTTAC
DNA 2: GTAAGAGCCGCGAGCGATCCTTGAAGCTGTCCCTGATGGTCGTCATCTACCTGCCTGGACAGCATGGCCTGCAACGCGGG
- binding result [5]: binds
- binding result [6]: no binding

B3: 80 bp target dsDNA (no crRNA) (dsDNA)
DNA 1: GCCCGCGTTGCAGGCCATGCTGTCCAGGCAGGTAGATGACGACCATCAGGGACAGCTTCAAGGATCGCTCGCGGCTCTTAC
DNA 2: GTAAGAGCCGCGAGCGATCCTTGAAGCTGTCCCTGATGGTCGTCATCTACCTGCCTGGACAGCATGGCCTGCAACGCGGG
- binding result [7]: no binding
